Residue numbers refer to the chain shown, from its start.
B1: F40 (antibody, V domains shown)
VH: EVQLLESGGGVVQPGRSLRLSCAASGFTFSSYAMHWVRQAPGKGLEWVAVISYDGSNKYYADSVKGRFIISRDNSKNTVYLQMNSLRAEDTAVYYCARPTYVFTYTGSSFDYWGQGTQVTVSS
VL: DIQVTQSPSSLSASLGDTVSITCRASRGLTDSVAWYQQKPGQAPKLLIYAASTLQSGVPSRFGGSGSGSYFTLTITSLQPEDVATYYCQNYKSAPWTFGQGTKVEIK
notes: Tested as full-length IgG with an IgG1 Fc from HEK293, as supernatant or purified; also called clone F40; anti-FOLR1 antibody F40
B2: F1 (antibody, V domains shown)
VH: B1 VH with A33G, I69T, V79L, T100R, Y101A, V102Y, F103Y, T104G, Y105A, T106Y
VL: EIVMTQSPSSVSASVGDRVAITCRASQGISSWLAWYQQKPGKAPKLLIYAASSLQSGVPSRFSGSGSGTDFTLTISSLQPEDFATYYCQQSYSTPLTFGGGTKVDIK
notes: also called clone F1; anti-FOLR1 antibody F1
B3: F8 (antibody, V domains shown)
VH: EVQLLESGGGVVQHGRSLRLSCAASGFTFSSYGMHWVRQAPGKGLEWVAVISYDGSNKYYADSVKGRFTISRDNSKNTLYLQMNSLRAEDTAVYYCARPRAYYGAYGSSFDYWGQGTQVTVSS
VL: B2 VL
notes: Tested as full-length IgG with an IgG1 Fc from HEK293, as supernatant or purified; also called clone F8; anti-FOLR1 antibody F8
B4: F26 (antibody, V domains shown)
VH: B3 VH with H14R, Q82P
VL: B2 VL
notes: Tested as full-length IgG with an IgG1 Fc from HEK293, as supernatant or purified; also called clone F26; anti-FOLR1 antibody F26
B5: F48 (antibody, V domains shown)
VH: B3 VH with H14P, Q82H
VL: B2 VL
notes: Tested as full-length IgG with an IgG1 Fc from HEK293, as supernatant or purified; also called clone F48; anti-FOLR1 antibody F48
B6: F100 (antibody, V domains shown)
VH: B3 VH with H14P, D73P
VL: B2 VL
notes: Tested as full-length IgG with an IgG1 Fc from HEK293, as supernatant or purified; also called clone F100; anti-FOLR1 antibody F100
B7: F112 (antibody, V domains shown)
VH: B3 VH with H14P, D73H
VL: B2 VL
notes: Tested as full-length IgG with an IgG1 Fc from HEK293, as supernatant or purified; also called clone F112; anti-FOLR1 antibody F112
B8: F123 (antibody, V domains shown)
VH: B3 VH with H14P, G15E, D73A
VL: B2 VL
notes: Tested as full-length IgG with an IgG1 Fc from HEK293, as supernatant or purified; also called clone F123; anti-FOLR1 antibody F123
B9: F138 (antibody, V domains shown)
VH: B3 VH with H14P, R72T, D73H
VL: B2 VL
notes: Tested as full-length IgG with an IgG1 Fc, HEK293 supernatant; also called clone F138; anti-FOLR1 antibody F138

biological target: T1, cynomolgus FOLR1 protein, His Tag (ACRO F01-C52H8) (cynomolgus, UniProt A0A2K5U044 25-233); assay: ELISA, coated cyno FOLR1-His, supernatant 1x
T1 construct: Bought protein coated on ELISA plates; also called Cynomolgus/Rhesus macaque FOLR1, Protein, His Tag; not shown: His tag
T1 sequence (A0A2K5U044 entry or part of it): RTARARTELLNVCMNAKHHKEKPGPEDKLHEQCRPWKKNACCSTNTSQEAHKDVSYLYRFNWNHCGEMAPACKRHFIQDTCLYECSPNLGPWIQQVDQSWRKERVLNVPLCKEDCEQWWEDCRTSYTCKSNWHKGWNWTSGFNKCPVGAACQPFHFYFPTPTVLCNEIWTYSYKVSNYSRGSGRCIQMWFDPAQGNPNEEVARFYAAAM

Point of comparison: B1, OD450 1.35 OD450. Against it:
- B2 — higher, 1.38 OD450
- B3 — lower, 0.896 OD450
- B4 — lower, 1.24 OD450
- B5 — lower, 1.15 OD450
- B6 — lower, 1.16 OD450
- B7 — lower, 1.26 OD450
- B8 — higher, 1.36 OD450
- B9 — lower, 1.14 OD450

biological target: T2, human FOLR1 protein, His Tag (ACRO FO1-H52H1) (human, UniProt P15328 25-233); assay: ELISA, coated hFOLR1-His, HEK293 supernatant
T2 construct: Bought protein coated on ELISA plates; not shown: His tag
T2 sequence (P15328 25-233 limits assumed): as the sequence (A0A2K5U044 entry or part of it) above, with T2I, R4W, K37R, P146A, Y171H counted along it

Point of comparison: B4, OD450 2.43 OD450. Against it:
- B1 — lower, 2.39 OD450
- B2 — the same, 2.43 OD450
- B3 — higher, 2.45 OD450
- B5 — higher, 2.54 OD450
- B6 — lower, 2.3 OD450
- B7 — lower, 2.35 OD450
- B8 — lower, 2.32 OD450
- B9 — lower, 2.41 OD450

biological target: T1, cynomolgus FOLR1 protein, His Tag (ACRO …); assay: ELISA, coated cyno FOLR1-His, supernatant 25x

Point of comparison: B5, OD450 0.908 OD450. Against it:
- B1 — higher, 0.924 OD450
- B2 — higher, 0.994 OD450
- B3 — higher, 1.06 OD450
- B4 — higher, 1.02 OD450
- B6 — lower, 0.875 OD450
- B7 — higher, 0.933 OD450
- B8 — higher, 1.07 OD450
- B9 — higher, 1.17 OD450

biological target: T2, human FOLR1 protein, His Tag (ACRO …); assay: ELISA, coated hFOLR1-His, supernatant 1x

Point of comparison: B5, OD450 1.56 OD450. Against it:
- B1 — lower, 0.811 OD450
- B2 — higher, 1.66 OD450
- B3 — higher, 1.67 OD450
- B4 — higher, 1.64 OD450
- B6 — higher, 1.61 OD450
- B7 — the same, 1.56 OD450
- B8 — higher, 1.72 OD450
- B9 — higher, 1.64 OD450

biological target: T2, human FOLR1 protein, His Tag (ACRO …); assay: ELISA, coated hFOLR1-His, supernatant 25x

Point of comparison: B3, OD450 1.31 OD450. Against it:
- B1 — lower, 0.163 OD450
- B2 — lower, 1.18 OD450
- B4 — higher, 1.48 OD450
- B5 — lower, 1.29 OD450
- B6 — lower, 1.18 OD450
- B7 — lower, 1.17 OD450
- B8 — higher, 1.33 OD450
- B9 — higher, 1.83 OD450

biological target: T2, human FOLR1 protein, His Tag (ACRO …); assay: ratio of OD450 on hFOLR1 to OD450 on anti-human IgG Fc

Point of comparison: B2, “Target binding/IgG level” value 1.08. Against it:
- B1 — lower, 1.02
- B3 — higher, 1.12
- B4 — higher, 1.21
- B5 — higher, 1.12
- B6 — higher, 1.48
- B7 — higher, 1.12
- B8 — lower, 1.06
- B9 — higher, 1.2

biological target: T2, human FOLR1 protein, His Tag (ACRO …); assay: ELISA, coated hFOLR1-His, supernatant 5x

Point of comparison: B1, OD450 0.382 OD450. Against it:
- B2 — higher, 1.45 OD450
- B3 — higher, 1.65 OD450
- B4 — higher, 1.51 OD450
- B5 — higher, 1.59 OD450
- B6 — higher, 1.53 OD450
- B7 — higher, 1.42 OD450
- B8 — higher, 1.47 OD450
- B9 — higher, 1.69 OD450

biological target: T1, cynomolgus FOLR1 protein, His Tag (ACRO …); assay: ELISA, coated cyno FOLR1-His, supernatant 5x

Point of comparison: B2, OD450 1.26 OD450. Against it:
- B1 — lower, 1.11 OD450
- B3 — higher, 1.28 OD450
- B4 — lower, 1.21 OD450
- B5 — lower, 1.04 OD450
- B6 — lower, 1.03 OD450
- B7 — lower, 1.21 OD450
- B8 — higher, 1.3 OD450
- B9 — lower, 1.14 OD450

Source: patent publication US20240245796A1 (PROFOUNDBIO US, published 2024)
